Target: T1, His-tagged recombinant Pit, wild type (Pit^WT) (Drosophila melanogaster, UniProt Q9VD51 1-680)
T1 construct: also called His-tagged Pit; pBH4-Pit; source: E. coli BL21, purified (Ni-NTA, size-exclusion chromatography on Superdex 200); not shown: 6×His, N-terminal, kept
Test: pull-down; His-tagged Pit (5 µM) as bait with purified HP1a as prey (5 µM; titrated from 50 to 5 µM); 20 mM sodium phosphate, 50 mM NaCl, 10 mM imidazole, 4 °C; captured on Ni-NTA magnetic beads; western blot; background control beads + HP1a only
Details: both partners purified

T1 sequence (Q9VD51 whole entry): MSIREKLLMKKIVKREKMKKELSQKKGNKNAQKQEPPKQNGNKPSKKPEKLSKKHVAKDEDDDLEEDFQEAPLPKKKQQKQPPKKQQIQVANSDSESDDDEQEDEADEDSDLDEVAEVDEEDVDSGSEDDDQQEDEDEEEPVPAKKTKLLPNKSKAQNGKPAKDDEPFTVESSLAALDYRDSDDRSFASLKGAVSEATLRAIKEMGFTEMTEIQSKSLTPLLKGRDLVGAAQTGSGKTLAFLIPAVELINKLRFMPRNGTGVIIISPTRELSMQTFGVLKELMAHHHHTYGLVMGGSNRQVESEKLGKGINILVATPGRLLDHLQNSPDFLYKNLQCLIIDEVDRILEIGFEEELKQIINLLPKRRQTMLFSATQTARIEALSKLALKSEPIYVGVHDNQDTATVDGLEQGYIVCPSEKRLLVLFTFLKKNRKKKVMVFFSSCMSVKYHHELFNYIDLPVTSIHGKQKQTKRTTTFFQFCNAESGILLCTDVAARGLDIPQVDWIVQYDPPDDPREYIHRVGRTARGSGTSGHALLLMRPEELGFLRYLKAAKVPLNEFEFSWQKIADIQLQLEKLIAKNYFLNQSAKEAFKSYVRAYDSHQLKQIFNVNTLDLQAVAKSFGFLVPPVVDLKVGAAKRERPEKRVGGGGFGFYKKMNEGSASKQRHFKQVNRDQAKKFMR

B1: purified HP1a, wild type (HP1a^WT) (natural protein, Drosophila melanogaster, UniProt P05205 1-206, looked up)
chain: MGKKIDNPESSAKVSDAEEEEEEYAVEKIIDRRVRKGKVEYYLKWKGYPETENTWEPENNLDCQDLIQQYEASRKDEEKSAASKKDRPSSSAKAKETQGRASSSTSTASKRKSEEPTAPSGNKSKRTTDAEQDTIPVSGSTGFDRGLEAEKILGASDNNGRLTFLIQFKGVDQAEMVPSSVANEKIPRMVIHFYEERLSWYSDNED
notes: HP1a, Drosophila melanogaster; It speaks of HP1a dimers, but no dimerisation experiment is done here
**Q.** Does B1 bind?
**A.** Result: binds
